Patent publication US20160326237A1 (ANNEXON, published 2016)

Tests used:
mouse C1q [1] = biological target: T1, mouse C1q (mouse, UniProt P14106 26-253); test: BLI (OCTET), C1q immobilised, antibody 2.0 ug/ml
human C1q [2] = biological target: T2, human C1q (human, UniProt P02745 23-245; P02746 28-253; P02747 29-245); test: BLI (OCTET), C1q immobilised, antibody 2.0 ug/ml
T2 construct: Native C1q (about 460 kDa) holds several copies of each chain; also called hC1q; C1Q antigen

mouse C1q [3] = biological target: T1, mouse C1q; test: BLI (OCTET)
human C1q [4] = biological target: T2, human C1q; test: BLI (OCTET)

T2 sequence (P02745 23-245 limits assumed, chain 1 of 3): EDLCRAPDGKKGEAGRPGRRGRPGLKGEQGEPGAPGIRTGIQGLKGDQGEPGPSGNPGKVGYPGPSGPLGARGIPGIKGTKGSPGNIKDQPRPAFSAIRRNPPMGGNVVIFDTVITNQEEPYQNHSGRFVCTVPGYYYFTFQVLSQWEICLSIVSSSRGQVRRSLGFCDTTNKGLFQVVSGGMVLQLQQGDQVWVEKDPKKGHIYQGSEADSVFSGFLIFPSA
T2 sequence (P02746 28-253 limits assumed, chain 2 of 3): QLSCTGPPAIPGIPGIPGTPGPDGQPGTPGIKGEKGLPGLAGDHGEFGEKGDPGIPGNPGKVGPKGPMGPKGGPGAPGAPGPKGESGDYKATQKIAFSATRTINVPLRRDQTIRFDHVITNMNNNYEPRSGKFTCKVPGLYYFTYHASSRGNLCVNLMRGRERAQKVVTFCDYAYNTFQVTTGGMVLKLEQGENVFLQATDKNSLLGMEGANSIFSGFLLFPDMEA
T2 sequence (P02747 29-245 limits assumed, chain 3 of 3): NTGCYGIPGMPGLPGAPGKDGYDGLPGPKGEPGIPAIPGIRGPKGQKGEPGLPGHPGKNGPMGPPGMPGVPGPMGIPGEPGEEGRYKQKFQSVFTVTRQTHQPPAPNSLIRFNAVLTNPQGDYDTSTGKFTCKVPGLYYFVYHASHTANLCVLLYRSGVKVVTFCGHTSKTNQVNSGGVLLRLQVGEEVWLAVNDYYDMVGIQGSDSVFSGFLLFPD
T1 sequence (chain, as listed by the source, chain 1 of 3): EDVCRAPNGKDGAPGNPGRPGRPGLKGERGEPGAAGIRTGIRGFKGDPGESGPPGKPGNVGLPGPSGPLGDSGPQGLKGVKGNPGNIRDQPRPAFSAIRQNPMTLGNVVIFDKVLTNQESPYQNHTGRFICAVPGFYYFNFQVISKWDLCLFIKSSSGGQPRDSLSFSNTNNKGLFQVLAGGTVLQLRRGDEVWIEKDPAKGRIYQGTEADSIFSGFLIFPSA
T1 sequence (P14106 26-253, chain 2 of 3): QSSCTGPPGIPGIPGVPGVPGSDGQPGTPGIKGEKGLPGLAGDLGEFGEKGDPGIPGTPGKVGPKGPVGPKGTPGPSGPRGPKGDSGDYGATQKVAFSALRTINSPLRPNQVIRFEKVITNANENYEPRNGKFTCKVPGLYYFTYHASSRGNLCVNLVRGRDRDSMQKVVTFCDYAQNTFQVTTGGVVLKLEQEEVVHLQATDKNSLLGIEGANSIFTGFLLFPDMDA
T1 sequence (chain, as listed by the source, chain 3 of 3): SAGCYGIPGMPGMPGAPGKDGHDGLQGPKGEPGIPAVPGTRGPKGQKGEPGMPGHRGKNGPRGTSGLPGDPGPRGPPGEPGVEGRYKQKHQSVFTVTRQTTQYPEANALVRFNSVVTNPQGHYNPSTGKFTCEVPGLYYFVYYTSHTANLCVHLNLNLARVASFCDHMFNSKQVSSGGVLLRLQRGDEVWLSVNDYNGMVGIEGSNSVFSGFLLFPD

- Kd (mouse C1q [1]): 0.0323 nM
- koff (mouse C1q [1]): 5.84e-05 s⁻¹
- kon (mouse C1q [1]): 1.81e+06 M⁻¹ s⁻¹
- Kd (human C1q [2]): 0.0128 nM
- koff (human C1q [2]): 6.31e-05 s⁻¹
- kon (human C1q [2]): 5.18e+06 M⁻¹ s⁻¹
- Kd (mouse C1q [3]): < 0.1 nM
- Kd (human C1q [4]): < 0.1 nM
B1: murine anti-human C1q monoclonal antibody M1 (antibody)
chain 1: QVQLQQPGAELVKPGASVKLSCKSSGYHFTSYWMHWVKQRPGQGLEWIGVIHPNSGSINYNEKFESKATLTVDKSSSTAYMQLSSLTSEDSAVYYCAGERDSTEVLPMDYWGQGTSVTVSS
chain 2: DVQITQSPSYLAASPGETITINCRASKSINKYLAWYQEKPGKTNKLLIYSGSTLQSGIPSRFSGSGSGTDFTLTISSLEPEDFAMYYCQQHNEYPLTFGAGTKLELK
